Laboratory results published in the supplement of paper PMC7125110.
± gives the standard error. For some assays here: This sample holds only a part of the variants without activity.

B1: glmS ribozyme (parent)
chain: AUAAAAGCGCCAGAACUACAGAAAUGUAGUUGACGAGGAGGAGGUUUAUCGAAUUUUCGGCGGAUGCCUCCAAA

Legend:
Conditions in all cases: with glucosamine-6-phosphate
glucosamine-6-phosphate [1] = variants of: B1; assay: kcat; higher = faster cleavage; RNA array
How it was run: (§1)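 Glucosamine-6-phosphate (40 μM to 10 mM) in HEPES/KCl/Mg(OAc)2 buffer was flowed over sequenced MiSeq chips, and tiles were imaged over ~14 h. Barcoded ribozyme variants there had been transcribed in situ by E. coli RNA polymerase and were tracked through a hybridised Cy3 probe at 37 °C. One- or two-exponential decay fits to per-tile medians, normalised to baseline and to non-cleaving reference variants, gave kobs. kcat and KM came from weighted Michaelis–Menten fits across concentrations.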

glucosamine-6-phosphate [2] = variants of: B1; assay: KM; higher = weaker cofactor use; RNA array
How it was run: as §1

glucosamine-6-phosphate [3] = variants of: B1; assay: self-cleavage kobs at 640 uM GlcN6P; higher = faster cleavage; RNA array
How it was run: as §1

glucosamine-6-phosphate [4] = variants of: B1; assay: self-cleavage kobs at 2500 uM GlcN6P; higher = faster cleavage; RNA array
How it was run: as §1

glucosamine-6-phosphate [5] = variants of: B1; assay: self-cleavage kobs at 10000 uM GlcN6P; higher = faster cleavage; RNA array
How it was run: as §1

glucosamine-6-phosphate [6] = variants of: B1; assay: self-cleavage kobs at 40 uM GlcN6P; higher = faster cleavage; RNA array
How it was run: as §1

glucosamine-6-phosphate [7] = variants of: B1; assay: self-cleavage kobs at 160 uM GlcN6P; higher = faster cleavage; RNA array
How it was run: as §1

Variant | kcat (glucosamine-6-phosphate [1]) | KM (glucosamine-6-phosphate [2]) | self-cleavage kobs at 640 uM GlcN6P (glucosamine-6-phosphate [3]) | self-cleavage kobs at 2500 uM GlcN6P (glucosamine-6-phosphate [4]) | self-cleavage kobs at 10000 uM GlcN6P (glucosamine-6-phosphate [5]) | self-cleavage kobs at 40 uM GlcN6P (glucosamine-6-phosphate [6]) | self-cleavage kobs at 160 uM GlcN6P (glucosamine-6-phosphate [7])
A12C A48U | 0.000191 ± 4.1e-06 s⁻¹ | 2890 ± 150 µM | 3.34e-05 ± 9.3e-06 s⁻¹ | 9.1e-05 ± 1.6e-05 s⁻¹ | 0.000147 ± 1.6e-05 s⁻¹ | – | –
A53G C71A | 0.00448 ± 0.002 s⁻¹ | – | 0.00169 ± 0.00037 s⁻¹ | 0.00297 ± 0.0007 s⁻¹ | 0.00857 ± 0.0012 s⁻¹ | 0.000374 ± 4.3e-05 s⁻¹ | 0.00085 ± 0.00013 s⁻¹
G26A | 0.0116 ± 0.0035 s⁻¹ | – | 0.0112 ± 0.0022 s⁻¹ | 0.00852 ± 0.0022 s⁻¹ | – | 0.00121 ± 0.00035 s⁻¹ | 0.00345 ± 0.0008 s⁻¹
A33U A39G | 0.00016 ± 3.8e-05 s⁻¹ | – | – | 6.65e-05 ± 2.8e-05 s⁻¹ | 0.000108 ± 1.3e-05 s⁻¹ | – | < 1e-05 s⁻¹
C16G A48U | 0.000805 ± 0.0004 s⁻¹ | – | – | – | 4.45e-05 ± 9.8e-06 s⁻¹ | < 1e-05 s⁻¹ | < 1e-05 s⁻¹
C11U C67U | 0.000394 ± 2.4e-05 s⁻¹ | 925 ± 130 µM | 0.000171 ± 1.8e-05 s⁻¹ | 0.000278 ± 3e-05 s⁻¹ | 0.000364 ± 3.9e-05 s⁻¹ | – | 5.21e-05 ± 1e-05 s⁻¹
U55C C67G | < 1e-05 s⁻¹ | – | – | – | – | < 1e-05 s⁻¹ | –
A15U U31C | 0.00128 ± 0.0001 s⁻¹ | 2710 ± 340 µM | 0.000233 ± 1.9e-05 s⁻¹ | 0.000703 ± 6.9e-05 s⁻¹ | 0.000981 ± 7.1e-05 s⁻¹ | 1.67e-05 ± 5.8e-06 s⁻¹ | 7.32e-05 ± 7.2e-06 s⁻¹
A6G A33G | < 1e-05 s⁻¹ | – | – | – | < 1e-05 s⁻¹ | – | –
A15G C68G | 0.000113 ± 3e-06 s⁻¹ | 367 ± 35 µM | 7.26e-05 ± 1.2e-05 s⁻¹ | 9.45e-05 ± 1.6e-05 s⁻¹ | 0.000113 ± 1.7e-05 s⁻¹ | – | 3.48e-05 ± 1.2e-05 s⁻¹
C11U A12U U56C | 0.00124 ± 0.00036 s⁻¹ | – | 0.000258 ± 5e-05 s⁻¹ | 0.000639 ± 0.00015 s⁻¹ | 0.00106 ± 0.00015 s⁻¹ | 5.74e-05 ± 1.7e-05 s⁻¹ | –
A14C U65C | 8.26e-05 ± 1.1e-05 s⁻¹ | 1220 ± 570 µM | 3.59e-05 ± 1.4e-05 s⁻¹ | 4.9e-05 ± 1.1e-05 s⁻¹ | 7.7e-05 ± 1.2e-05 s⁻¹ | < 1e-05 s⁻¹ | –
C11A U56G | 0.00015 ± 3.9e-05 s⁻¹ | – | 6.35e-05 ± 1.2e-05 s⁻¹ | 7.76e-05 ± 1.1e-05 s⁻¹ | 0.000155 ± 1.9e-05 s⁻¹ | – | –
A15G U45C | 0.00752 ± 0.0016 s⁻¹ | 5570 ± 1600 µM | 0.000853 ± 0.00012 s⁻¹ | 0.00219 ± 0.00027 s⁻¹ | 0.00497 ± 0.00061 s⁻¹ | 7.04e-05 ± 1.4e-05 s⁻¹ | 0.000179 ± 3.2e-05 s⁻¹
A12U G40A C71U | 0.101 ± 0.05 s⁻¹ | – | 0.0194 ± 0.007 s⁻¹ | – | 0.116 ± 0.047 s⁻¹ | 0.00209 ± 0.0003 s⁻¹ | –
U65G U69C | 0.00467 ± 0.0019 s⁻¹ | – | 0.000431 ± 8.3e-05 s⁻¹ | 0.00108 ± 0.00019 s⁻¹ | 0.00297 ± 0.0005 s⁻¹ | – | 0.000177 ± 4.5e-05 s⁻¹
A39G U69G | 0.000101 ± 1.5e-05 s⁻¹ | – | 7.75e-05 ± 1.3e-05 s⁻¹ | 0.000143 ± 1.7e-05 s⁻¹ | 9.32e-05 ± 1e-05 s⁻¹ | 4.07e-05 ± 1.3e-05 s⁻¹ | 0.000114 ± 3.2e-05 s⁻¹
C11A C16G | 0.000161 ± 3.7e-05 s⁻¹ | – | – | – | 5.99e-05 ± 1.1e-05 s⁻¹ | – | –
U30C A53C | 3.34e-05 ± 6.8e-06 s⁻¹ | – | – | 3.87e-05 ± 9.7e-06 s⁻¹ | 2.78e-05 ± 9e-06 s⁻¹ | – | < 1e-05 s⁻¹
G29C U55A | 0.00298 ± 0.00096 s⁻¹ | 3270 ± 1400 µM | 0.000406 ± 6.1e-05 s⁻¹ | 0.00139 ± 0.00019 s⁻¹ | 0.00222 ± 0.00061 s⁻¹ | 4.44e-05 ± 1.1e-05 s⁻¹ | 0.000171 ± 3e-05 s⁻¹
G37A U55A | 0.00489 ± 0.0022 s⁻¹ | – | 0.000667 ± 0.00015 s⁻¹ | 0.00226 ± 0.00037 s⁻¹ | 0.00286 ± 0.00068 s⁻¹ | 0.000128 ± 5.4e-05 s⁻¹ | 0.000133 ± 2.8e-05 s⁻¹
G37A U55G | 0.0025 ± 0.0004 s⁻¹ | 2980 ± 830 µM | 0.000401 ± 9.1e-05 s⁻¹ | 0.00122 ± 0.0002 s⁻¹ | 0.00188 ± 0.00028 s⁻¹ | 2.68e-05 ± 1.3e-05 s⁻¹ | 0.000204 ± 6.7e-05 s⁻¹
U31G G66U U69G | 4.42e-05 ± 1.3e-05 s⁻¹ | – | – | 6.07e-05 ± 1.6e-05 s⁻¹ | – | – | 6.31e-05 ± 2.1e-05 s⁻¹
C16U C58G | 0.000176 ± 1.3e-05 s⁻¹ | 1730 ± 350 µM | 4.29e-05 ± 9.1e-06 s⁻¹ | 0.000117 ± 1.6e-05 s⁻¹ | 0.000146 ± 1.3e-05 s⁻¹ | – | –
C16G U54C | 0.00528 ± 0.0015 s⁻¹ | 3350 ± 1400 µM | 0.000745 ± 0.00019 s⁻¹ | 0.00247 ± 0.00064 s⁻¹ | 0.00397 ± 0.00058 s⁻¹ | 9.28e-05 ± 1.6e-05 s⁻¹ | 0.000157 ± 5.6e-05 s⁻¹
G37U C67U | 1.39e-05 ± 4.5e-06 s⁻¹ | – | – | – | – | < 1e-05 s⁻¹ | –
A42G U56A | 0.0334 ± 0.011 s⁻¹ | 4460 ± 1800 µM | 0.00451 ± 0.001 s⁻¹ | 0.0106 ± 0.0033 s⁻¹ | 0.024 ± 0.0052 s⁻¹ | 0.000401 ± 8.1e-05 s⁻¹ | 0.000893 ± 0.00024 s⁻¹
G44U U55G | 0.000311 ± 3.4e-05 s⁻¹ | 1860 ± 400 µM | 7.46e-05 ± 1.3e-05 s⁻¹ | 0.000204 ± 3.6e-05 s⁻¹ | 0.00025 ± 4.1e-05 s⁻¹ | – | –
A53G | 0.0676 ± 0.0095 s⁻¹ | 2010 ± 330 µM | 0.015 ± 0.00053 s⁻¹ | 0.0341 ± 0.0017 s⁻¹ | 0.0639 ± 0.0029 s⁻¹ | 0.00137 ± 2.6e-05 s⁻¹ | 0.00441 ± 0.0003 s⁻¹
